Measured values taken from patent US20250262210A1 (TRUSTEES OF COLUMBIA UNIVERSITY IN THE CITY OF NEW YORK, published 2025).

Key:
Experiment in all cases: IP/MS, LZTR1 R810W-FLAG, U87
[1] = target: T1, AMBRA1 (human, UniProt Q9C0C7 1-1298, limits assumed)
T1 sequence (looked up): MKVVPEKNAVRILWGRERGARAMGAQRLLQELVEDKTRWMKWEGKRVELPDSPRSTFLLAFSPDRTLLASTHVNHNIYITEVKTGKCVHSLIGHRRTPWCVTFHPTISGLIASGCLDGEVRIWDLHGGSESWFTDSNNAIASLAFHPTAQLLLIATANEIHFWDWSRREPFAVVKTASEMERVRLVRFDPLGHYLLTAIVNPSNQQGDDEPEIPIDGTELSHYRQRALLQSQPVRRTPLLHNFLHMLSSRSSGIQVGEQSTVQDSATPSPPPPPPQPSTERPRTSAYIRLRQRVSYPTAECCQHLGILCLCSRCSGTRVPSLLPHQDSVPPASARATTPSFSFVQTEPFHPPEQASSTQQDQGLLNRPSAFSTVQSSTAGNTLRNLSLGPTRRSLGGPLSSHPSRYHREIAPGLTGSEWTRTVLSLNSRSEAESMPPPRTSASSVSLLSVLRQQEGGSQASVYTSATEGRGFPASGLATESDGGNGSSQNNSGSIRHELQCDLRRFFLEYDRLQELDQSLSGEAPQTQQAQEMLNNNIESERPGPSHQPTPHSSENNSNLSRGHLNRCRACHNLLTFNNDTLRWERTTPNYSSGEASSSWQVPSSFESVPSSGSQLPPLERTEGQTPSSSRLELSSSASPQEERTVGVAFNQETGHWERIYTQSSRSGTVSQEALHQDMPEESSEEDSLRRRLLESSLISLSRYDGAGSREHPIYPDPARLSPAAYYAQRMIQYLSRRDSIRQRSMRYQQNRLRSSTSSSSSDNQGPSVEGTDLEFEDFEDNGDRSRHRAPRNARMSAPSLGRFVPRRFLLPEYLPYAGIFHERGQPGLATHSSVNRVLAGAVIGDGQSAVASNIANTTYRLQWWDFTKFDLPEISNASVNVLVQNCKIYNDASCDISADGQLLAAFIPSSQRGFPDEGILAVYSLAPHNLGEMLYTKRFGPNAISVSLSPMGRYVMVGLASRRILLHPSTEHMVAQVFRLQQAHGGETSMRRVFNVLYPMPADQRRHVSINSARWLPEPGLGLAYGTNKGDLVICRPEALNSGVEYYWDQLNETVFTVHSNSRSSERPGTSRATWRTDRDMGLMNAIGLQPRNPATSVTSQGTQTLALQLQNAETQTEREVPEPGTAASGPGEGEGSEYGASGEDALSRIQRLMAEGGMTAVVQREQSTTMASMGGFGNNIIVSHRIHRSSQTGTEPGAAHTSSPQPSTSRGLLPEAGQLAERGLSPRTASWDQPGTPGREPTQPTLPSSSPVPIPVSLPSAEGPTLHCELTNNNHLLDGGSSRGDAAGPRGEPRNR
In short: (§1)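 Extracted peptides in 3% acetonitrile/0.1% formic acid ran on a 50 cm C18 column into an Orbitrap Fusion, with MaxQuant identification and spectral counting.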

[2] = target: EPG5 (human, UniProt Q9HCE0 1-2579, limits assumed)
In short: as §1

[3] = target: EIF2AK4 (human, UniProt Q9P2K8 1-1649, limits assumed)
In short: as §1

[4] = target: RNF213 (human, UniProt Q63HN8 1-5207, limits assumed)
In short: as §1

Measured: binding result

EIF2AK4, sequence (Q9P2K8 whole entry): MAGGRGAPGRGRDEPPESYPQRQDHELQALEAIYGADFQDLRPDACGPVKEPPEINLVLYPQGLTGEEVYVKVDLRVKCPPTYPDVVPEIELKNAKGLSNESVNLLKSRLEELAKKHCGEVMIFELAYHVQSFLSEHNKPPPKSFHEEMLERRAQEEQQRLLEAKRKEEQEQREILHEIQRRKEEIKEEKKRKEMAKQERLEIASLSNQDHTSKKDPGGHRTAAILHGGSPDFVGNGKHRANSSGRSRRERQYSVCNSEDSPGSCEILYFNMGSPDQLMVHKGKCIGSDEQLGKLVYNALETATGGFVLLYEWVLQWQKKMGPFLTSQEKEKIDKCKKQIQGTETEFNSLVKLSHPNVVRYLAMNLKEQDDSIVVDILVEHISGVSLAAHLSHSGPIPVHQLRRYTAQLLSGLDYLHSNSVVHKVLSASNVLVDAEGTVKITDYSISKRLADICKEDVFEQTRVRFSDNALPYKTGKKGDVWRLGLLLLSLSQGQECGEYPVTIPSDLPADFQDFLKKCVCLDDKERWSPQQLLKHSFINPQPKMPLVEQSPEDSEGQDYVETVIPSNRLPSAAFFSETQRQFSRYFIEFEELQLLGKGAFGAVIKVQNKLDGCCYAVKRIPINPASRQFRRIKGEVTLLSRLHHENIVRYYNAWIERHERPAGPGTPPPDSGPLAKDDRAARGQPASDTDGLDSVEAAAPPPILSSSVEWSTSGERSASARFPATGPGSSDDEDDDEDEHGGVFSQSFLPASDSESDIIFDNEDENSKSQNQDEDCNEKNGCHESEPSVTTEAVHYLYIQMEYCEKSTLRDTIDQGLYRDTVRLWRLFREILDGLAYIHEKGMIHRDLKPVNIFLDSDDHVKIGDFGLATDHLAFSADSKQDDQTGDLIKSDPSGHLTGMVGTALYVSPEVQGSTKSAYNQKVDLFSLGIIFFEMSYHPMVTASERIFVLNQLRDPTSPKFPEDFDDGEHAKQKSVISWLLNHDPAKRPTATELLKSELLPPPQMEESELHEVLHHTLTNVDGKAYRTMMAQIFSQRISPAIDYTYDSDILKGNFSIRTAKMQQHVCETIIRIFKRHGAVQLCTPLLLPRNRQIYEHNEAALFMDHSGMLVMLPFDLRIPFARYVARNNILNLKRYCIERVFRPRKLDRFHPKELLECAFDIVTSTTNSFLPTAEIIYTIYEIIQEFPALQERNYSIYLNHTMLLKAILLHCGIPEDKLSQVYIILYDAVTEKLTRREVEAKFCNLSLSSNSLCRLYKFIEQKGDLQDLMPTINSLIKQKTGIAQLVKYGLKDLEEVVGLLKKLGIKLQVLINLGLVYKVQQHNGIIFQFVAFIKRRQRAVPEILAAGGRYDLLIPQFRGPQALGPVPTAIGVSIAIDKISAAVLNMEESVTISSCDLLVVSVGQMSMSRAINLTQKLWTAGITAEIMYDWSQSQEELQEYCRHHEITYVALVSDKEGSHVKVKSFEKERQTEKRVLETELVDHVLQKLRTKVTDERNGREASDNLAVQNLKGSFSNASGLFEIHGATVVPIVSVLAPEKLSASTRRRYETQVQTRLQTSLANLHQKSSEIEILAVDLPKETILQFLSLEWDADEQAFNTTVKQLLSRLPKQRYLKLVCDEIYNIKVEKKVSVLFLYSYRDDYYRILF
EPG5, sequence (Q9HCE0 whole entry): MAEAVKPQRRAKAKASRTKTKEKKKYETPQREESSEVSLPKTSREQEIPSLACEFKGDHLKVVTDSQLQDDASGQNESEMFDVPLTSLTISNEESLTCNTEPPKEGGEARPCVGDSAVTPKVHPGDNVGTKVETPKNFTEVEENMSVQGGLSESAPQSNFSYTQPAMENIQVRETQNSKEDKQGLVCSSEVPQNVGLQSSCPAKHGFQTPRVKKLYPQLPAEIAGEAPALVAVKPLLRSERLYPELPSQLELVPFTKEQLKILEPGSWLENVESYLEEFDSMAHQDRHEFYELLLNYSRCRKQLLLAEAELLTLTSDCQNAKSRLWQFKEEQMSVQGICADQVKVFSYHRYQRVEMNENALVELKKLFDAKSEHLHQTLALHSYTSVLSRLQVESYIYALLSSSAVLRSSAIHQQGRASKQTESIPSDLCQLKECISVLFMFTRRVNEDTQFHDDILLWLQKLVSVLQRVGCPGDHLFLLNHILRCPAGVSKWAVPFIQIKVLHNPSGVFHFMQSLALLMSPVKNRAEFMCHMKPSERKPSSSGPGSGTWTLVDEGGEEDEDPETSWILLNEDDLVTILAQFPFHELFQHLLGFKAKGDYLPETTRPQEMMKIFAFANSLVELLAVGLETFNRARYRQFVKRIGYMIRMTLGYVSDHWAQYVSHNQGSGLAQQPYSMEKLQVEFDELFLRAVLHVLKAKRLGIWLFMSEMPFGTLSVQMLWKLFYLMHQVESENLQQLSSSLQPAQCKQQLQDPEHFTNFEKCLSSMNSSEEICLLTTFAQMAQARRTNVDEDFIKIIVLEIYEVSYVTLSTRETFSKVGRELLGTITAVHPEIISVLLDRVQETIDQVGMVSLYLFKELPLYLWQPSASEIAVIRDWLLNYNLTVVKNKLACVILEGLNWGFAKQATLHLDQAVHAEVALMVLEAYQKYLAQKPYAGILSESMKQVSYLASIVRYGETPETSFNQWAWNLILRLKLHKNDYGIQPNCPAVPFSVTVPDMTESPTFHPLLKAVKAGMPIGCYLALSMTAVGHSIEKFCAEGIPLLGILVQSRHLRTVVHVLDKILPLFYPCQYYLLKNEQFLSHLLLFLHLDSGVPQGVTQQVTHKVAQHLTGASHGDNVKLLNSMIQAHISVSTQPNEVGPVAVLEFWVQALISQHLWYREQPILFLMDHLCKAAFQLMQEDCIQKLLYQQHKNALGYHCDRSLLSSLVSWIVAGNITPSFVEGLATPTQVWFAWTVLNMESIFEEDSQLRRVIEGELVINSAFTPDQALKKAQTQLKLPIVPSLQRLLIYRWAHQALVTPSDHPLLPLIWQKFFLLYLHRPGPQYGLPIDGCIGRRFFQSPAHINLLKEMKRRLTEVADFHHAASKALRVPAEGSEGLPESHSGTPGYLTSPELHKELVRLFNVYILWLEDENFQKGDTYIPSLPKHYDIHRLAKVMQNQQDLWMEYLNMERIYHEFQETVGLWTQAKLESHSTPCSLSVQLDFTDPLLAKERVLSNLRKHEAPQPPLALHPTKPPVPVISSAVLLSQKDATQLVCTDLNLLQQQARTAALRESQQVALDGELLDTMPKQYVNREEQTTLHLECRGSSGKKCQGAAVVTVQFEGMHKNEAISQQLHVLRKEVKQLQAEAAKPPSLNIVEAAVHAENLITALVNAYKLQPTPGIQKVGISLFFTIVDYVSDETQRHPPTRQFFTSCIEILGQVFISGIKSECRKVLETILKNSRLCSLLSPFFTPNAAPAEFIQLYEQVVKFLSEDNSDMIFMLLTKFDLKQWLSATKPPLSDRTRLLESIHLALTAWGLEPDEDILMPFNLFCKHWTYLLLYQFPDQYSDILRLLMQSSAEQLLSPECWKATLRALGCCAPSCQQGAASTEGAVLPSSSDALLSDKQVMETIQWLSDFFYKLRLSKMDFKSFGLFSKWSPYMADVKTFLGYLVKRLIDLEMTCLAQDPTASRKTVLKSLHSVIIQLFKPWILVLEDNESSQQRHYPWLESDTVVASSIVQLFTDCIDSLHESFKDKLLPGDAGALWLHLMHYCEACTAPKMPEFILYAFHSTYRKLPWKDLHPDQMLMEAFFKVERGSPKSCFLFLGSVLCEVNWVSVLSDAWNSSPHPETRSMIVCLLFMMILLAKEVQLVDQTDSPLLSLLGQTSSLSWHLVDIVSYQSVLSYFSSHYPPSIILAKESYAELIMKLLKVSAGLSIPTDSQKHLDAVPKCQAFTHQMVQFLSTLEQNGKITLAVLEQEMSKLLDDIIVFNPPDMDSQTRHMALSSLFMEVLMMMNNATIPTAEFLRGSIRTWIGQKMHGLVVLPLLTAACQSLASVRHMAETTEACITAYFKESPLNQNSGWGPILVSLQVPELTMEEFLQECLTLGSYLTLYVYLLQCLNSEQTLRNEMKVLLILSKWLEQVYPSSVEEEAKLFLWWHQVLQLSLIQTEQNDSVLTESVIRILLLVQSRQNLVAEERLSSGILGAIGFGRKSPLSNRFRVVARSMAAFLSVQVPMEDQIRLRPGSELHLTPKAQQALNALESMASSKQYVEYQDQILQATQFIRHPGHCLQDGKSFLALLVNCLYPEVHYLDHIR

B1: LZTR1 R810W-FLAG (other, human, UniProt Q8N653 1-840, looked up)
chain: MAGPGSTGGQIGAAALAGGARSKVAPSVDFDHSCSDSVEYLTLNFGPFETVHRWRRLPPCDEFVGARRSKHTVVAYKDAIYVFGGDNGKTMLNDLLRFDVKDCSWCRAFTTGTPPAPRYHHSAVVYGSSMFVFGGYTGDIYSNSNLKNKNDLFEYKFATGQWTEWKIEGRLPVARSAHGATVYSDKLWIFAGYDGNARLNDMWTIGLQDRELTCWEEVAQSGEIPPSCCNFPVAVCRDKMFVFSGQSGAKITNNLFQFEFKDKTWTRIPTEHLLRGSPPPPQRRYGHTMVAFDRHLYVFGGAADNTLPNELHCYDVDFQTWEVVQPSSDSEVGGAEVPERACASEEVPTLTYEERVGFKKSRDVFGLDFGTTSAKQPTQPASELPSGRLFHAAAVISDAMYIFGGTVDNNIRSGEMYRFQFSCYPKCTLHEDYGRLWESRQFCDVEFVLGEKEECVQGHVAIVTARSRWLRRKITQARERLAQKLEQEAAPVPREAPGVAAGGARPPLLHVAIREAEARPFEVLMQFLYTDKIKYPRKGHVEDVLLIMDVYKLALSFQLCRLEQLCRQYIEASVDLQNVLVVCESAARLQLSQLKEHCLNFVVKESHFNQVIMMKEFERLSSPLIVEIVRRKQQPPPRTPLDQPVDIGTSLIQDMKAYLEGAGAEFCDITLLLDGHPRPAHKAILAARSSYFEAMFRSFMPEDGQVNISIGEMVPSRQAFESMLRYIYYGEVNMPPEDSLYLFAAPYYYGFYNNRLQAYCKQNLEMNVTVQNVLQILEAADKTQALDMKRHCLHIIVHQFTKVSKLPTLWSLSQQLLLDIIDSLASHISDKQCAELGADI
notes: Stably expressed in U87 cells by lentivirus; also called LZTR1-FLAG-R810W; LZTR1 RW; not shown: FLAG tag
binds: all assays above
